Source: FireProtDB (doi:10.1021/bi701495v)

Conditions: Ajellomyces capsulatus (strain G186AR / H82 / ATCC MYA-2454 / RMSCC 2432); pH 6.5; 25 °C; Urea; CD; KH2PO4 0.01 M; KCl 0.1 M; reversible: Yes; whole UniProt chain shown

B1: Calcium-binding protein wild type, O42720 (protein)
chain: MLFSKVIAPAFILLGAASAAPGGLAPENASKRDQPSVGDAFDKYNEAVRVFTQLSSAANCDWAACLSSLSASSAACIAAVGELGLDVPLDLACAATATSSATEACKGCLW
- denaturant m value: 0.84 kcal/mol/M
- denaturant midpoint (higher = more stable): 3.4 M
- unfolding free energy: 2.9 kcal/mol
